Experimental findings from patent publication US20260001953A1 (TWIST BIOSCIENCE, published 2026) are described below.

The target of experiment [1] is T1, mouse CD117 (mouse, UniProt P05532).
T1 construct: antigen of the Carterra SPR kinetics; also called murine CD117
T1 sequence (receptor, looked up): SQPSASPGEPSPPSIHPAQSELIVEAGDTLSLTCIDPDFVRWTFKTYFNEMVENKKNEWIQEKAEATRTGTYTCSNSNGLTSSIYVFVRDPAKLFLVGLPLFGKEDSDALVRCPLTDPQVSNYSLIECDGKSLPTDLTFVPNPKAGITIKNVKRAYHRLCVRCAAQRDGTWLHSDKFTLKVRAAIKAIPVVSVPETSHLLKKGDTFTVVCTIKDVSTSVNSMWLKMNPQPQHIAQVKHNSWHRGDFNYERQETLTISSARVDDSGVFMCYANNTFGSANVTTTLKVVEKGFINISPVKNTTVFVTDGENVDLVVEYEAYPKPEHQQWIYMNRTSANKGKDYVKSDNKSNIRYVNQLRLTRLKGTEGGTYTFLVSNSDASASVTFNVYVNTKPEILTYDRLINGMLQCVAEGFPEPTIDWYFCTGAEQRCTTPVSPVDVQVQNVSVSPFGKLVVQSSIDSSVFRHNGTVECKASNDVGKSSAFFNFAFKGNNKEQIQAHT
Nature of the experiment: Carterra SPR, mouse CD117. The method, then:
(§1) To further evaluate the antibodies discovered during the screens, 21 clones were selected for detailed characterization and were analyzed for target binding kinetics by a Carterra SPR instrument. The binding kinetics of the anti-CD117 antibodies for human CD117, cynomolgus monkey CD117, and murine CD117 are shown in FIG. 29A-29B.

Experiment [2] has as its target T2, Cluster of differentiation 117 (CD117), antigen of epitope binning and ELISA (UniProt P10721 26-520, limits assumed).
T2 construct: also called tyrosine-protein kinase KIT; mast/stem cell growth factor receptor (SCFR)
Kind of experiment: Carterra SPR, human CD117. The procedure:
as §1

Experiment [3] addresses T3, CD117 transiently expressed on Expi293 cells (UniProt P10721 26-976, limits assumed).
T3 construct: whole, on cells; Two cassettes are described (P2A mVenus and direct mVenus fusion); also called CD117 transient cells; the transient cell line
Nature of the experiment: FACS cell binding, Expi293 transiently expressing CD117. The procedure: (§2) The transient expression of CD117 was validated with a control antibody, Expi293 (FIGS. 17A-17B). Expi293, […], was transiently transfected with CD117 48-hours post-transfection. The secondary antibody used was APC Goat anti-human IgG (diluted 1:400). 100,000 cells per well were blocked with 1×PBS+0.5% BSA for 1 hour, stained with 100 μL of the primary antibody for 1 hour, and stained with the secondary antibody for one hour, all with 3× washes in between each staining.

Experiment [4] concerns the target T3, CD117 transiently expressed on Expi293 …. Nature of the experiment: FACS, MFI expressing / parental cells. The method, then: as §2
Background: In flow cytometry, cells or beads pass a laser one at a time.

Experiment [5] deals with T4, cyno CD117 (Macaca fascicularis, UniProt A0A7N9CP24).
T4 construct: antigen of the Carterra SPR kinetics; also called cynomolgus monkey CD117
Nature of the experiment: Carterra SPR, cyno CD117. The method, then:
as §1

For experiment [6], the target named is T5, SIGLEC-6.
T5 construct: also called OB-BP-1
Nature of the experiment: SPR cross-reactivity table. The gist of the method: (§3)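 Clones from synthetic libraries, panned for four rounds using beads and screened by clonal ELISA, were expressed and purified. These anti-SIGLEC-8 antibodies were then checked by surface plasmon resonance on a Carterra instrument for cross-reactivity with related SIGLEC proteins. For each protein tested, a dissociation constant or binding result is given.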

In experiment [7] the target is T6, SIGLEC-2.
T6 construct: also called CD22
Nature of the experiment: SPR cross-reactivity table. The gist of the method: as §3

Experiment [8] has as its target T7, SIGLEC-5 (limits assumed).
T7 construct: also called OB-BP-2
T7 receptor: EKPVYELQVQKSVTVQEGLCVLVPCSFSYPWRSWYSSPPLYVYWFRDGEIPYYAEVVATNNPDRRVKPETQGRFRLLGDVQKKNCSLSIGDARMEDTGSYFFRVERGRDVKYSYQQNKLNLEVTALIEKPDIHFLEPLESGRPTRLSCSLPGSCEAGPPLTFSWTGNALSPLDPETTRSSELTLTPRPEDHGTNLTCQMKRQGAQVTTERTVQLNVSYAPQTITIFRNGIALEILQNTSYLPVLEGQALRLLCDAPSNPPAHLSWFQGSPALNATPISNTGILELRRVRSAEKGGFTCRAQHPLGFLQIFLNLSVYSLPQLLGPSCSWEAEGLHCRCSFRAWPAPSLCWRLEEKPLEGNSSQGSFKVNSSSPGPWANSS
Kind of experiment: SPR cross-reactivity table. The gist of the method:
as §3

For experiment [9], the target named is T8, SIGLEC-3.
T8 construct: also called CD33
Nature of the experiment: SPR cross-reactivity table. The method in brief:
as §3

Experiment [10] addresses T9, SIGLEC-7.
T9 construct: also called p75/AIRM1
Kind of experiment: SPR cross-reactivity table. The gist of the method: as §3

Experiment [11] concerns the target T10, SIGLEC-8 transiently expressed on cells (UniProt Q9NYZ4 17-499, limits assumed).
T10 construct: whole, on cells; Two cassettes are described (P2A mVenus and direct mVenus fusion); also called the transient line; pTT5-SIGLEC-8 P2A mVenus
Kind of experiment: cell binding titration, transient SIGLEC-8 line.

In experiment [12] the target is T11, Sialic acid-binding immunoglobulin-like lectin 8 (SIGLEC-8), antigen of the Carterra SPR studies (UniProt Q9NYZ4 17-363, limits assumed). Kind of experiment: Carterra SPR. The gist of the method:
(§4)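 On a Carterra instrument, surface plasmon resonance was used to measure how antibodies bind SIGLEC-8, with rate constants and dissociation constants as read-outs. The antibodies were taken from synthetic libraries by bead-based panning and clonal ELISA screening, then expressed and purified.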

Experiment [13] deals with T11, Sialic acid-binding immunoglobulin-like …. Kind of experiment: Carterra SPR kinetics, summary table. The method in brief: as §4

T6 sequence (chain, as listed by the source limits assumed): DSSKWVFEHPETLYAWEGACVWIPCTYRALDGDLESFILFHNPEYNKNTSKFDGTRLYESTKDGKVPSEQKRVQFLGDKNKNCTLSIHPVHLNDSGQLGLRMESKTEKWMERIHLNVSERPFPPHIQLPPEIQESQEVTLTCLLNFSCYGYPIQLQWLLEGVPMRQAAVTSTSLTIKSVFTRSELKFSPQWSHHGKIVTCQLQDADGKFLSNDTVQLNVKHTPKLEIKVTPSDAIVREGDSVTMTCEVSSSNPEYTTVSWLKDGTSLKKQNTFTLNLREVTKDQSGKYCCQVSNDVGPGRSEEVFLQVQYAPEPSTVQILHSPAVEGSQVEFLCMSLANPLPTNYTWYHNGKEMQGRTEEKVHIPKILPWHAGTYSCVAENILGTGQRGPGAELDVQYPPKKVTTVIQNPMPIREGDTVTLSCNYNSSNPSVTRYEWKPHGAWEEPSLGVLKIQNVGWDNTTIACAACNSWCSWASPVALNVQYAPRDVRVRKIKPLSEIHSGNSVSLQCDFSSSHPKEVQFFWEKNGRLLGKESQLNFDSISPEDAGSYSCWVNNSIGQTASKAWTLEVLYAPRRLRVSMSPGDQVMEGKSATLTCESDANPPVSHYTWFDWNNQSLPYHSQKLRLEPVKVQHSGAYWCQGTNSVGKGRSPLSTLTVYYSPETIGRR
T2 sequence (P10721 26-520 limits assumed): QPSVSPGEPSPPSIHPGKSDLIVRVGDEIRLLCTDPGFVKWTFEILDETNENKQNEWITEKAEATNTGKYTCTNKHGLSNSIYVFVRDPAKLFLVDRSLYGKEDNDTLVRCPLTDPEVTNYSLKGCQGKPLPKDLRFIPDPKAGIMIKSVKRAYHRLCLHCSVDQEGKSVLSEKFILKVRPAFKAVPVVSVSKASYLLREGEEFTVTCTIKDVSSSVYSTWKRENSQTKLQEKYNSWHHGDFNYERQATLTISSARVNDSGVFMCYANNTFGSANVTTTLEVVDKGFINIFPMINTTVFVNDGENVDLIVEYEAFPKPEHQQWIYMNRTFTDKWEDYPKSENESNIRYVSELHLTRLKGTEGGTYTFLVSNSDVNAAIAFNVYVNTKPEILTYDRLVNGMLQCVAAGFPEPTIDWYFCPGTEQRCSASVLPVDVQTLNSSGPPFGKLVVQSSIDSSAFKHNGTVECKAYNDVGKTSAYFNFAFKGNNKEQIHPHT
T5 sequence (receptor, as listed by the source limits assumed): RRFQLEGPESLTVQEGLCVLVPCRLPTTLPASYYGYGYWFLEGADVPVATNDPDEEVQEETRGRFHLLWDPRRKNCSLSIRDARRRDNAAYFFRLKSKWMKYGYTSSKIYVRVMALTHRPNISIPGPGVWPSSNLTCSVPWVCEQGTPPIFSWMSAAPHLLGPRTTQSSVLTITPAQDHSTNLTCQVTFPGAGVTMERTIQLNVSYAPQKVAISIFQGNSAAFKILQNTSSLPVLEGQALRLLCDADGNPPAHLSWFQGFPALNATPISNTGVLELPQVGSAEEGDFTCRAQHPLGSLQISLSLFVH
T10 sequence (Q9NYZ4 17-499 limits assumed): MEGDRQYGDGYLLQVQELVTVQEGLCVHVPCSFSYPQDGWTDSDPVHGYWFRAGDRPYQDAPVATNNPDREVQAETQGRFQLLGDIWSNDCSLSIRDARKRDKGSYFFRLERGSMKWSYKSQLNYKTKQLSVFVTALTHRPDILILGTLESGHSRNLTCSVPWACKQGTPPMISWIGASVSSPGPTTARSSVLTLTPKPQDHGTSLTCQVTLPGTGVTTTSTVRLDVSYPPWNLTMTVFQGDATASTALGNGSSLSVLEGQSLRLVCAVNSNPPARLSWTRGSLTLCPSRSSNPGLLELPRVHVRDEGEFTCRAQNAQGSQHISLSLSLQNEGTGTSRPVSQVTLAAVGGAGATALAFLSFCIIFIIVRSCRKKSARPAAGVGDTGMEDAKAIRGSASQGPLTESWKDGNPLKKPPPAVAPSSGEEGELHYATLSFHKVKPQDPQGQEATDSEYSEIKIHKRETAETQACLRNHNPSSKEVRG
T3 sequence (P10721 26-976 limits assumed): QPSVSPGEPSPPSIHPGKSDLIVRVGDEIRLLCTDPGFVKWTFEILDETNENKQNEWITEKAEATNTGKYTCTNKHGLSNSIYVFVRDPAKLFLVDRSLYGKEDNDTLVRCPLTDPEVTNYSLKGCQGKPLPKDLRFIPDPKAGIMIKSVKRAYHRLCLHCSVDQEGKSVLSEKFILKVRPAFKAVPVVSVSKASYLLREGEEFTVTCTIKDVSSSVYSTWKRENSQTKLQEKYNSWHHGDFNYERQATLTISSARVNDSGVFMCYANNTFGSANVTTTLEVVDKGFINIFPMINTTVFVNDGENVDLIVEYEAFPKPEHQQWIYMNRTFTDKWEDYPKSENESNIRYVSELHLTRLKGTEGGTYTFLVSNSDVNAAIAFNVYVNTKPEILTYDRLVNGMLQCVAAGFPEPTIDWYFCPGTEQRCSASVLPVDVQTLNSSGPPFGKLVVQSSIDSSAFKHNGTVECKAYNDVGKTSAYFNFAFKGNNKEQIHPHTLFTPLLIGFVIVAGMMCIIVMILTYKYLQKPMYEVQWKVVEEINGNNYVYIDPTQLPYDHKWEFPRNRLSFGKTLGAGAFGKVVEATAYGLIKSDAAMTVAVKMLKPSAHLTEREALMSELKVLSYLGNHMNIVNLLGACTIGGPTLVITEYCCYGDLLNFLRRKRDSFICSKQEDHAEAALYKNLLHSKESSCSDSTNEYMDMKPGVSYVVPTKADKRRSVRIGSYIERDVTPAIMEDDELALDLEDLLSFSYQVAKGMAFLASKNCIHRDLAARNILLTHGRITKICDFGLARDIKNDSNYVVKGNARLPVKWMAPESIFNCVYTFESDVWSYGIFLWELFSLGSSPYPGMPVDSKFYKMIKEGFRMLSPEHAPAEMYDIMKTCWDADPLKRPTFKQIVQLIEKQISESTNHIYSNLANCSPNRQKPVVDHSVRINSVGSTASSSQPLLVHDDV
T8 sequence (receptor, as listed by the source limits assumed): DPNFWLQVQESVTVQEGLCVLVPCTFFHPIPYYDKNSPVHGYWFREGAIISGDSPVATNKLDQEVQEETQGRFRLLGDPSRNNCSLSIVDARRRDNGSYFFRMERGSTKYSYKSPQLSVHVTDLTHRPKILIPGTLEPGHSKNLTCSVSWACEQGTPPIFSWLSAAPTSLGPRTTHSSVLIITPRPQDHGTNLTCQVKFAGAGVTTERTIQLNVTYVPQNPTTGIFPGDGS
T9 sequence (receptor, as listed by the source limits assumed): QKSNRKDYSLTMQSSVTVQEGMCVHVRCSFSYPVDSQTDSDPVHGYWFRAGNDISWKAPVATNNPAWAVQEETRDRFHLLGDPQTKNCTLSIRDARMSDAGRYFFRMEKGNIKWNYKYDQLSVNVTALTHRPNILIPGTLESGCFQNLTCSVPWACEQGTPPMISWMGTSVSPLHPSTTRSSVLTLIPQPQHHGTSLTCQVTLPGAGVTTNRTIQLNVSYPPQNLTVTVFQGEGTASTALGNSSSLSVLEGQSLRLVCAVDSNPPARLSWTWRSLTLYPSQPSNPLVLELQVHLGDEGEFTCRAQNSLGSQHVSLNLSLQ
T11 sequence (Q9NYZ4 17-363 limits assumed): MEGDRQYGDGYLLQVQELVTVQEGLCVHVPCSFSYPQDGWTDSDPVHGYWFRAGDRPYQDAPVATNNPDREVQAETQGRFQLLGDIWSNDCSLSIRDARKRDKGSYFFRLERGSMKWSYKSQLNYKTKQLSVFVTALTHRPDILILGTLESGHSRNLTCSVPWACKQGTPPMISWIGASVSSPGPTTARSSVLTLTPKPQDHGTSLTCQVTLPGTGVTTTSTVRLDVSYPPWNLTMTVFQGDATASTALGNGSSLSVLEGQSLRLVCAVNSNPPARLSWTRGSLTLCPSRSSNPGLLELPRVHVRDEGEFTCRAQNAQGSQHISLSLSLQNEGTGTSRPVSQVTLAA
T4 sequence (A0A7N9CP24 entry or part of it): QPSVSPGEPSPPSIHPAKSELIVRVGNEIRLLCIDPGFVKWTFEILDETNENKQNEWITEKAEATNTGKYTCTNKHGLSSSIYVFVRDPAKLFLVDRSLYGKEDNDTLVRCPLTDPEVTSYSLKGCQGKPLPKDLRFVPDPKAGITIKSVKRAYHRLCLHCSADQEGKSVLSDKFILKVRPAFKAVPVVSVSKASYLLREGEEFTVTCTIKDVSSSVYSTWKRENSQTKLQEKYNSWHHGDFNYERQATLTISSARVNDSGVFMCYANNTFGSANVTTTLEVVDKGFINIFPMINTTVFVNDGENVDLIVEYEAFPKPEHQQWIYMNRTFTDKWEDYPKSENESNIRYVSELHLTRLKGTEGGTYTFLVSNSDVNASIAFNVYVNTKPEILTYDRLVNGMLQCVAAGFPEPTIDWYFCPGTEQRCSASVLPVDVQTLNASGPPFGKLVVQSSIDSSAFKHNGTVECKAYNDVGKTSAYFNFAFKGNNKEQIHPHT

B1: CD117-5 (antibody, human IgG1, kappa, V domains shown)
VH: EVQLLESGGGLVQPGGSLRLSCAASGFIFTNYAMSWVRQAPGKGLEWVSAIGGSGSSTYYADSVKGRFTVSRDNSKNTLYLQMNSLRAEDTAVYYCVKGGYSYGDSFDFWGQGTLVTVSS
VL: DIQMTQSPSSLSASVGDRVTITCRASQSVRNYLNWYQQKPGKAPKLLIYDASDLQSGVPSRFSGSGSGTDFTLTISSLQPEDFATYYCQQGYSTPWTFGGGTKVEIKR
notes: detected with anti-human IgG in FACS
What is called Kd is the concentration at which binding is half-saturated. Higher therefore signals lower affinity. As usually defined, the koff is the first-order rate constant of dissociation. The low end stands for a long-lived complex, the high end for a short-lived complex. For orientation: kon means a measure of how fast the partners come together. Read a low kon as slow association. As a reminder, the EC50 is the concentration giving half of the maximal effect. Turning to B1, the binding result in [1] is “no binding”. In [2], this molecule had a Kd of 670 nM, a koff of 0.201 s⁻¹ and an on-rate (kon) of 300000 M⁻¹ s⁻¹. For the same molecule, the concentration for a half-maximal effect (EC50) in experiment [3] is 6.88 nM. Also, the “MFI Ratio” value in experiment [4] stood at 21.3. Also, in experiment [5], binding was put at a Kd of 2390 nM, the koff is 0.211 s⁻¹ and the kon was 88300 M⁻¹ s⁻¹.

B2: SIGLEC-8-7 (antibody, human IgG1, kappa, V domains shown)
VH: EVQLLESGGGLVQPGGSLRLSCAASGFTFSNHAMAWVRQAPGKGLEWVSGISGSAASTYYADSVKGRFTISRDNSKNTLYLQMNSLRAEDTAVYYCARDLLALPYAFDIWGQGTLVTVSS
VL: DIQMTQSPSSLSASVGDRVTITCRASQSTSSYLSWYQQKPGKAPKLLIYAVSTLQSGVPSRFSGSGSGTDFTLTISSLQPEDFATYYCQQSYSVPLTFGGGTKVEIKR
notes: tested as expressed and purified mAb
On to B2, for which the binding result in [6], in experiment [7], in experiment [9] and in experiment [10] was “no binding” in each case. For the same molecule, the Kd was 123 nM in [8] and 1.12 nM in experiment [12]. For the same molecule, the concentration for a half-maximal effect (EC50) in experiment [11] worked out at 0.813 nM.

B3: SIGLEC-8-24 (antibody, human IgG1, kappa, V domains shown)
VH: EVQLLESGGGLVQPGGSLRLSCAASGFTFSSTAMSWVRQAPGKGLEWVSAISGTGGSTYYADSVKGRFTISRDNSKNTLYLQMNSLRAEDTAVYYCARESDYDYFGMDVWGQGTLVTVSS
VL: DIQMTQSPSSLSASVGDRVTITCRASQSVSSYVNWYQQKPGKAPKLLIYGASSLQDGVPSRFSGSGSGTDFTLTISSLQPEDFATYYCQQSYSVPVTFGGGTKVEIKR
notes: as for B2
Regarding B3, the binding result in [6], in [9] and in [10] was “no binding” throughout. The Kd was found to be 33.7 nM in experiment [8] and 0.822 nM in experiment [12]. The molecule further showed an EC50 in experiment [11] of 1.05 nM. Further, the off-rate (koff) in experiment [13] is 0.000194 s⁻¹. Further, the kon in experiment [13] is 236000 M⁻¹ s⁻¹.

B4: SIGLEC-8-19 (antibody, human IgG1, kappa, V domains shown)
VH: EVQLLESGGGLVQPGGSLRLSCAASGFTFRTYDMSWVRQAPGKGLEWVSAISGGGGSTYYADSVKGRFTISRDNSKNTLYLQMNSLRAEDTAVYYCARDSSYRWFSMDVWGQGTLVTVSS
VL: DIQMTQSPSSLSASVGDRVTITCRAGQSISTYLNWYQQKPGKAPKLLIYGASKLQSGVPSRFSGSGSGTDFTLTISSLQPEDFATYYCQQTYRTPLTFGGGTKVEIKR
notes: as for B2
For B4, the equilibrium dissociation constant (Kd) in experiment [6] is 1070 nM; in [8], 14.5 nM; in experiment [12] it was 4.86 nM. Besides, the binding result in experiment [7], in [9] and in experiment [10] was “no binding” in each case.

B5: SIGLEC-8-32 (antibody, human IgG1, kappa, V domains shown)
VH: EVQLLESGGGLVQPGGSLRLSCAASGFTLSSYVMSWVRQAPGKGLEWVSAISGSGATTYYADSVKGRFTISRDNSKNTLYLQMNSLRAEDTAVYYCAREVAGIFDYWGQGTLVTVSS
VL: DIQMTQSPSSLSASVGDRVTITCRSSQSISTYLNWYQQKPGKAPKLLIYAASYLQSGVPSRFSGSGSGTDFTLTISSLQPEDFATYYCQQSYDTPLTFGGGTKVEIKR
notes: as for B2
In the case of B5, the Kd in [6] was 5.3 nM; in experiment [7], 128 nM; in experiment [8] it was 4.2 nM; in [10], 17.4 nM; in [12], 19.2 nM. Also, in [11], a half-maximal response (EC50) required 3.81 nM.

B6: CD117-9 (antibody, human IgG1, kappa, V domains shown)
VH: EVQLLESGGGLVQPGGSLRLSCAASGFSFTNYAMSWVRQAPGKGLEWVSSISGSGGSTYYADSVKGRFTISRDNSKNTLYLQMNSLRAEDTAVYYCARGSGSYFGFDFWGQGTLVTVSS
VL: DIQMTQSPSSLSASVGDRVTITCRASQGIGTYLNWYQQKPGKAPKLLIYAASSLQPGVPSRFSGSGSGTDFTLTISSLQPEDFATYYCQQSYRPPFTFGGGTKVEIKR
notes: as for B1
Turning to B6, the binding result in experiment [1] is reported as “no binding”. Moreover, in experiment [2], the Kd is 9.51 nM, the koff turned out to be 0.0058 s⁻¹ and the kon is 610000 M⁻¹ s⁻¹. In addition, the EC50 in [3] was determined as 1.39 nM. Further, the “MFI Ratio” value in experiment [4] was 29.1. In experiment [5], this molecule gave a Kd of 15.7 nM, a koff of 0.0108 s⁻¹ and an on-rate constant (kon) of 685000 M⁻¹ s⁻¹.

B7: SIGLEC-8-8 (antibody, human IgG1, kappa, V domains shown)
VH: EVQLLESGGGLVQPGGSLRLSCAASGFTFNYYALSWVRQAPGKGLEWVSGISGSGGTTFYADSVKGRFTISRDNSKNTLYLQMNSLRAEDTAVYYCARRGGWYSFDIWGQGTLVTVSS
VL: DIQMTQSPSTLSAYVGDRVTITCRASQIISTYLNWYQQKPGKAPKLLIYSASSLQSGVPSRFSGSGSGTDFTLTISSLQPEDFATYYCQQSFSAPDTFGGGTKVEIKR
notes: as for B2
On to B7, for which the Kd in experiment [7] is 4300 nM; in [8], 39.3 nM; in experiment [12] it was 1.65 nM. The binding result in experiment [9] and in experiment [10] was “no binding” in each case. The response in experiment [11] was half-maximal at 1.3 nM (EC50).

B8: SIGLEC-8-56 (antibody, human IgG1, kappa, V domains shown)
VH: EVQLLESGGGLVQPGGSLRLSCAASGLTFSSSAMSWVRQAPGKGLEWVSAISGYGGSTYYADSVKGRFTISRDNSKNTLYLQMNSLRAEDTAVYYCAREAGYYYYGMDVWGQGTLVTVSS
VL: DIQMTQSPSSLSASVGDRVTITCRASQKITSYLNWYQQKPGKAPKLLIYAASSLHDGVPSRFSGSGSGTDFTLTISSLQPEDFATYYCQQSYGTPLTFGGGTKVEIKR
notes: as for B2
Turning to B8, the equilibrium dissociation constant (Kd) in [7] was found to be 43.2 nM; in experiment [8] it was 3.4 nM; in experiment [9], 60.5 nM; in experiment [10], 18 nM; in experiment [12], 0.271 nM. Moreover, the EC50 in experiment [11] amounted to 1.02 nM. In [13], the off-rate (koff) turned out to be 0.000156 s⁻¹. Also, the kon in experiment [13] stood at 576000 M⁻¹ s⁻¹.
